According to patent publication US20030055219A1 (MYRIAD GENETICS, published 2003):

Experiments:
[1] = biological target: T1, C-NAP1 amino acids 1000-1300 (two-hybrid bait, fused to the Gal4 DNA binding domain) (yeast, UniProt P04386 1-147; Q9BV73 1000-1300); assay: yeast two-hybrid, C-NAP1 fragment as Gal4 DBD bait, human brain library prey
T1 construct: range 1-147;range 1000-1300; Bait was expressed in yeast as a C-terminal fusion to Gal4 DBD 1-147 from vector pGBTQ
From the text: (§1) In these yeast cells, the bait is produced as a C-terminal fusion protein with the DNA binding domain of the transcription factor Gal4 (amino acids 1 to 147). A total human brain (person) cDNA library cloned into the yeast expression vector pACT2 was purchased from Clontech (human brain […] cDNA, cat. #HL4004AH), transformed into the yeast strain J692 (genotype of this strain: Mat α, ade2, his3, leu2, trp1, URA3::GAL1-lacZ LYS2::GAL1-HIS3 gal4del ga18Odel cyhR2), and selected for the ability to drive leucine synthesis. In these yeast cells, each cDNA is expressed as a fusion protein with the transcription activation domain of the transcription factor Gal4 (amino acids 768 to 881) and a 9 amino acid hemagglutinin epitope tag. J693 cells (Mat a type) expressing the bait were then mated with J692 cells (Mat a type) expressing proteins from the brain library. The resulting diploid yeast cells expressing proteins interacting with the bait protein were selected for the ability to synthesize tryptophan, leucine, histidine, and β-galactosidase. DNA was prepared from each clone, transformed by electroporation into E. coli strain KC8 (Clontech KC8 electrocompetent cells, cat. #C2023-1), and the cells were selected on ampicillin-containing plates in the absence of either tryptophane (selection for the bait plasmid) or leucine (selection for the brain library plasmid). […]

[2] = biological target: T2, C-NAP1 amino acids 1-300 (two-hybrid bait, fused to the Gal4 DNA binding domain) (yeast, UniProt P04386 1-147; Q9BV73 1-300); assay: yeast two-hybrid, bait C-NAP1 AA 1-300, prey AA 2-76
T2 construct: range 1-147;range 1-300; Bait cDNA was made by PCR from brain cDNA; It was expressed in yeast as a C-terminal fusion to Gal4 DBD 1-147 from vector pGBTQ
From the text: as §1, with “A” for “In these yeast cells, the bait is produced as a C-terminal fusion protein with the DNA binding domain of the transcription factor Gal4 (amino acids 1 to 147). A”, “plasmid). DNA for both plasmids was prepared and sequenced by di-deoxynucleotide chain termination method.” for “plasmid).”

[3] = biological target: T1, C-NAP1 amino acids 1000-1300 …; assay: yeast two-hybrid, bait C-NAP1 AA 1000-1300, prey AA 184-246
From the text: as §1, with “A” for “In these yeast cells, the bait is produced as a C-terminal fusion protein with the DNA binding domain of the transcription factor Gal4 (amino acids 1 to 147). A”, “plasmid). DNA for both plasmids was prepared and sequenced by di-deoxynucleotide chain termination method.” for “plasmid).”

[4] = biological target: T3, C-NAP1 amino acids 250-550 (two-hybrid bait, fused to the Gal4 DNA binding domain) (yeast, UniProt P04386 1-147; Q9BV73 250-550); assay: yeast two-hybrid, bait C-NAP1 AA 250-550, prey AA 1314-1575
T3 construct: range 1-147;range 250-550; Bait was expressed in yeast as a C-terminal fusion to Gal4 DBD 1-147 from vector pGBTQ
From the text: as §1, with “A” for “In these yeast cells, the bait is produced as a C-terminal fusion protein with the DNA binding domain of the transcription factor Gal4 (amino acids 1 to 147). A”, “plasmid). DNA for both plasmids was prepared and sequenced by di-deoxynucleotide chain termination method.” for “plasmid).”

[5] = biological target: T1, C-NAP1 amino acids 1000-1300 …; assay: yeast two-hybrid, bait C-NAP1 AA 1000-1300, prey AA 7-283
From the text: as §1, with “A” for “In these yeast cells, the bait is produced as a C-terminal fusion protein with the DNA binding domain of the transcription factor Gal4 (amino acids 1 to 147). A”, “plasmid). DNA for both plasmids was prepared and sequenced by di-deoxynucleotide chain termination method.” for “plasmid).”

B1: FIP-2 amino acids 302-577 (two-hybrid prey clone, fused to the Gal4 activation domain) (other, yeast;human, UniProt P04386 768-881, looked up, not shown: small tags and cut ends)
chain: ANFNQSGNIADSSLSFTFTNSSNGPNLITTQTNSQALSQPIASSNVHDNFMNNEITASKIDDGNNSKPLSPGWTDQTAYNAFGITTGMFNTTTMDDVYNYLFDDEDTPPNPKKELNLQVTSLFKELQEAHTKLSEAELMKKRLQEKCQALERKNSAIPSELNEKQELVYTNKKLELQVESMLSEIKMEQAKTEDEKSKLTVLQMTHNKLLQEHNNALKTIEELTRKESEKVDRAVLKELSEKLELAEKALASKQLQMDEMKQTIAKQEEDLETMTILRAQMEVYCSDFHAERAAREKIHEEKEQLALQLAVLLKENDAFEDGGRQSLMEMQSRHGARTSDSDQQAYLVQRGAEDRDWRQQRNIPIHSCPKCGEVLPDIDTLQIHVMDCII
notes: Prey came from the Clontech human brain library in pACT2; The clone 'included' these residues
Question: Does B1 bind [1]?
Answer: binds

B2: HSBP1 amino acids 2-76 (two-hybrid prey clone, fused to the Gal4 activation domain) (other, yeast;human, UniProt P04386 768-881, looked up, not shown: small tags and cut ends)
chain: ANFNQSGNIADSSLSFTFTNSSNGPNLITTQTNSQALSQPIASSNVHDNFMNNEITASKIDDGNNSKPLSPGWTDQTAYNAFGITTGMFNTTTMDDVYNYLFDDEDTPPNPKKEAETDPKTVQDLTSVVQTLLQQMQDKFQTMSDQIIGRIDDMSSRIDDLEKNIADLMTQAGVEELESENKIPATQKS
notes: range 768-881;range 2-76
Question: Does B2 bind [2]?
Answer: binds

B3: BAP31 amino acids 184-246 (two-hybrid prey clone, fused to the Gal4 activation domain) (other, yeast;human, UniProt P04386 768-881, looked up, not shown: small tags and cut ends)
chain: ANFNQSGNIADSSLSFTFTNSSNGPNLITTQTNSQALSQPIASSNVHDNFMNNEITASKIDDGNNSKPLSPGWTDQTAYNAFGITTGMFNTTTMDDVYNYLFDDEDTPPNPKKELKADLQKLKDELASTKQKLEKAENQVLAMRKQSEGLTKEYDRLLEEHAKLQAAVDGPMDKKEE
notes: range 768-881;range 184-246; The printed GenBank number 'U5211' looks truncated
Question: Does B3 bind [3]?
Answer: binds

B4: IQGAP2 amino acids 1314-1575 (two-hybrid prey clone, fused to the Gal4 activation domain) (other, yeast;human, UniProt P04386 768-881, looked up, not shown: small tags and cut ends)
chain: ANFNQSGNIADSSLSFTFTNSSNGPNLITTQTNSQALSQPIASSNVHDNFMNNEITASKIDDGNNSKPLSPGWTDQTAYNAFGITTGMFNTTTMDDVYNYLFDDEDTPPNPKKEQPGNTLTEILETPATAQQEVDHATDMVSRAMIDSRTPEEMKHSQSMIEDAQLPLEQKKRKIQRNLRTLEQTGHVSSENKYQDILNEIAKDIRNQRIYRKLRKAELAKLQQTLNALNKKAAFYEEQINYYDTYIKTCLDNLKRKNTRRSIKLDGKGEPKGAKRAKPVKYTAAKLHEKGVLLDIDDLQTNQFKNVTFDIIATEDVGIFDVRSKFLGVEMEKVQLNIQDLLQMQYEGVAVMKMFDKVKVNVNLLIYLLNKKFYGK
Question: Does B4 bind [4]?
Answer: binds

B5: KIAA0174 amino acids 7-283 (two-hybrid prey clone, fused to the Gal4 activation domain) (other, yeast;human, UniProt P04386 768-881, looked up, not shown: small tags and cut ends)
chain: ANFNQSGNIADSSLSFTFTNSSNGPNLITTQTNSQALSQPIASSNVHDNFMNNEITASKIDDGNNSKPLSPGWTDQTAYNAFGITTGMFNTTTMDDVYNYLFDDEDTPPNPKKEKAERLRVNLRLVINRLKLLEKKKTELAQKARKEIADYLAAGKDERARIRVEHIIREDYLVEAMEILELYCDLLLARFGLIQSMKELDSGLAESVSTLIWAAPRLQSEVAELKIVADQLCAKYSKEYGKLCRTNQIGTVNDRLMHKLSVEAPPKILVERYLIEIAKNYNVPYEPDSVVMAEAPPGVETDLIDVGFTDDVKKGGPGRGGSGGFTAPVGGPDGTVPMPMPMPMPSANTPFSYPLPKGPSDFNGLPMGTYQAFPNIHPPQIPATPPSYESV
notes: range 768-881;range 7-283
Question: Does B5 bind [5]?
Answer: binds
